The test concerns the target T1, hALPI (Homo sapiens, UniProt P09923).
T1 sequence (P09923 with tags, fused parts or gaps): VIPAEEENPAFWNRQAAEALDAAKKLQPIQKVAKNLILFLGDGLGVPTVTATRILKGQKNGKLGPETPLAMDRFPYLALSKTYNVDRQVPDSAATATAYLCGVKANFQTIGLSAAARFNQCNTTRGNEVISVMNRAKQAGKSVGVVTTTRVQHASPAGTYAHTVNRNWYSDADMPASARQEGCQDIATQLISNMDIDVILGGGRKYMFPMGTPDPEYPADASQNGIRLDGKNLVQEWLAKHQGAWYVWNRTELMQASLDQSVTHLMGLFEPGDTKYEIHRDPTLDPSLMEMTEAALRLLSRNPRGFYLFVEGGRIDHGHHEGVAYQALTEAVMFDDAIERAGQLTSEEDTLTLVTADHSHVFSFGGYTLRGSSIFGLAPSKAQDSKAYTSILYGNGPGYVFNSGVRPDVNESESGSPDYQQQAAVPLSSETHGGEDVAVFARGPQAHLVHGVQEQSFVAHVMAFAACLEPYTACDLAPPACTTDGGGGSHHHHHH
In words: BLI binding to ALPI His. The settings on record: VHH-hFc fusions, very low response values. Here is the method:
Binding kinetics were determined using the Biolayer Interferometry (BLI) Octet K2 system (Sartorius). Human ALPP, ALPPL2, ALPL (each fused with a cysteine stabilised leucine zipper) and ALPI, (SEQ ID NO: 265, SEQ ID NO: 266 and SEQ ID NO: 267 and SEQ ID NO: 264 respectively) were immobilised in sodium acetate pH5 buffer to AR2G sensors using amine coupling. All assays were conducted in PBS with a plate temperature of 25° C. Ka (M^−1s^−1), Kd (s^−1) and KD (nM) values were determined using Octet Data Analysis High Throughput software (ForteBio) for Biolayer Interferometry.
Binding kinetics were determined using the Biolayer Interferometry (BLI) Octet K2 or R4 system (Sartorius). Human ALPP, ALPPL2 and ALPL all fused with a disulphide stabilised leucine zipper (SEQ ID NO: 265, SEQ ID NO: 266, and SEQ ID NO: 267) and ALPI His (SEQ ID NO: 264) were used in BLI experiments. […] Ka (M^−1s^−1), Kd (s^−1) and KD (nM) values were determined using Octet Data Analysis High Throughput software (Sartorius) for Biolayer Interferometry.
Binding kinetics were determined using the Biolayer Interferometry (BLI) Octet K2 or R4 system (Sartorius). […] Ka (M^−1s^−1), Kd (s^−1) and KD (nM) values were determined using Octet Data Analysis High Throughput software (Sartorius) for Biolayer Interferometry.

The record followed here is patent publication US20260216242A1, “ALPP-SPECIFIC VARIANT ANTIGEN BINDING MOLECULES” (ALMAC DISCOVERY LIMITED, priority 2022, published 2026).

B1: B01: ALPP/ALPPL2 targeting VHH domain, SEQ ID NO: 20 (protein)
VHH: QVQLVESGGGLVQAGGSLRLSCEVTRSPMPIDTMAWYRQAPGRQRELVAIISRSGSTNYADSVKGRFTISRNDTKSTMYKSTMYLKMNTLELEDTGVYYCNAVGLWNGAEYWGQGTQVTVSS
B1 had a Kd of 148 nM. That is a sub-micromolar value.

B2: F08: ALPP/ALPPL2 targeting VHH domain, SEQ ID NO: 35 (protein)
VHH: QVQLVESGGGSVQAGGSLRLSCAASGPSLSNYAMGWFRQAPGKEREFVAGISWGGGRTSYTDSVKGRFTISRDNAKNTVYLQMNNLKPEDTGVYYCAGRYGRGRNVEYEYDYWGQGTQVTVSS
B2: binding was characterised by a dissociation constant (Kd) of 10.8 nM.
